Source: US5981483

What was measured:
[1] = target: TGF-β2; assay: SPR (BIAcore); analyte over immobilized cytokine
[2] = target: BMP-4; assay: SPR (BIAcore); analyte over immobilized cytokine
[3] = target: purified human TGF-β1 (human) (UniProt P01137)
[4] = target: purified human TGF-β1 (human) (UniProt P01137); remark: listed apart in the source

Q: Which results are given for “bovine thyroglobulin (from UniProt P01267)”?
A: Kd [1]: 3800 nM; koff [1]: 0.005 s⁻¹; kon [1]: 1300 M⁻¹ s⁻¹; Kd [2]: 20 nM; koff [2]: 0.0011 s⁻¹; kon [2]: 54000 M⁻¹ s⁻¹; IC50, neutralization of TGF-β1 activity in the Mv1Lu growth inhibition assay [3]: 220 nM; percent neutralization of the antiproliferative activity of TGF-β1 (3H-thymidine incorporation, Mv1Lu cells) [4]: 150%
